The values that follow come from ChEMBL document CHEMBL1671717, “In vitro potentiation of carbapenems with ME1071, a novel metallo-beta-lactamase inhibitor, against metallo-beta-lactamase- producing Pseudomonas aeruginosa clinical isolates” (Antimicrob Agents Chemother, 2010).

Substrate in data set [1]: C[C@@H](O)[C@H]1C(=O)N2C(C(=O)O)=C(SCCNC=N)C[C@H]12
Briefly: (§1) Activity of Pseudomonas aeruginosa beta-lactamase IMP-1 by UV spectrophotometric analysis.

Substrate in data set [2]: C[C@@H](O)[C@H]1C(=O)N2C(C(=O)[O-])=C(SC3Cn4cnc[n+]4C3)[C@H](C)[C@H]12
The description is as §1.

Substrate in data set [3]: C[C@@H](O)[C@H]1C(=O)N2C(C(=O)O)=C(SCCNC=N)C[C@H]12
Briefly: (§2) Ratio of Kcat to Km for Pseudomonas aeruginosa beta-lactamase IMP-1 by UV spectrophotometric analysis.

Substrate in data set [4]: C[C@@H](O)[C@H]1C(=O)N2C(C(=O)O)=C(S[C@@H]3CN[C@H](C(=O)N(C)C)C3)[C@H](C)[C@H]12
The data set is described as §2.

Substrate in data set [5]: C[C@@H](O)[C@H]1C(=O)N2C(C(=O)[O-])=C(SC3Cn4cnc[n+]4C3)[C@H](C)[C@H]12
The description is as §2.

B1: Beta-lactamase (Pseudomonas aeruginosa), Q79MP6 (protein)
chain: MSKLSVFFIFLFCSIATAAESLPDLKIEKLDEGVYVHTSFEEVNGWGVVPKHGLVVLVNAEAYLIDTPFTAKDTEKLVTWFVERGYKIKGSISSHFHSDSTGGIEWLNSRSIPTYASELTNELLKKDGKVQATNSFSGVNYWLVKNKIEVFYPGPGHTPDNVVVWLPERKILFGGCFIKPYGLGNLGDANIEAWPKSAKLLKSKYGKAKLVVPSHSEVGDASLLKLTLEQAVKGLNESKKPSKPSN
For orientation: Km means the concentration of substrate that gives half-maximal velocity. Broadly, the kcat is the maximal rate divided by the concentration of active sites. A word on the kcat/Km: it is the second-order rate constant that governs catalysis at low substrate concentration. Turning to B1, the values for the Km in data set [1] and in data set [2] were 35.1 µM and 167 µM, respectively. Further, the kcat was determined as 63.5 s⁻¹ in data set [1] and 44.7 s⁻¹ in data set [2]. The figures for the kcat/Km in data set [3], in data set [4] and in data set [5] were 1.8 µM⁻¹ s⁻¹, 0.2 µM⁻¹ s⁻¹ and 0.3 µM⁻¹ s⁻¹, respectively.
